Numbering of substitutions follows the chain as printed.
B1: HCV 208A-134 (antibody, V domains shown)
VH: QGQMQQSGAELAKPGASVKLSCKTSGFTFSSSYISWLKQKPGQSLEWIAWIYAGTGNTNYNQKFTDKAQLTVDTSSSTAYMQLSSLTTEDSAIYYCAISGTGFTYWGQGTLVTVSA
VL: EVLMTQSPLSLPVSLGDQASISCRSSQSLEHTNGNTYLEWFLQRPGQPPKLLIYKVSSRFSGVPDRFSGSGSGTDFTLKISRVEAEDLGVYYCFQGSHVPFTFGSGTKLAIKR
B2: HCV 208A-352 (antibody, V domains shown)
VH: B1 VH with A12V, Y33F, L83F
VL: DVLMAQTPLSLPVTLGDQASISCRSSQSLVHSNGNTYLEWFLQKPGQSPKLLIYNVSNRFSGVPDRFSGSGSGTDFTLKISRVEAEDLGVYYCFQGSHVPLTFGSGTKLEIKR
B3: HCV 208A-557 (antibody, V domains shown)
VH: B1 VH with A12V
VL: DIALTQSPASLAVSLGQRATISCRASQSVSTSRYSYMHWYQQKPGQPPELLIKYASNLESGVPARFSGSGSGTDFTLNIHPVGEEDTATYYCQHSWDFPFTFGSGTKLEIKR
B4: HCV 208A-210 (antibody, V domains shown)
VH: QVQLQQSGPELVKPGASMRISCKASGYTFTSYYVHWIKQRPGQGLEWIGCIYPGDVNTDYNEKFKGKATLTADKSSSTAYMQVSTLTSEDSAIYFCVLYYYGSFAYWGQGTLVTVSA
VL: EIVLTQSPAITAASLGQNVTITCRASSSVSYMHWYRQKSGTSPQLWIYEISRRASGVPARFRASGSGTSYSLTISSMEAEDAAIYYCQQWNYPLTFGAGTKLEVKR
B5: HCV 208A-422 (antibody, V domains shown)
VH: DVQLQESGPGLVNPSQSLSLTCSVTGYSITSGYYWIWIQQSPGNKLEWMGYIKYDGGNNYSPSLKNRISIARDTSKNQCFLKLNSVTIEDTATYYCTRGSDSFDYWGQGTTLTVSS
VL: DIVLTQSPASLAVSLGQRAIISCKASQSVSFAGTNLMHWYQQKPGQQPKLLIYRASNLETGVPTRFSGSGSRTDFTLNIHPVEEDDAATYYCQQSREYYTFGGGTKLEIKR
B6: HCV 208A-442 (antibody, V domains shown)
VH: B5 VH with Q39R, S41F, C79F
VL: B5 VL
B7: HCV 208A-159 (antibody, V domains shown)
VH: QLQQSGPAQVKPGASVMISCKTSGYTFTENAMHWVKQSHGKSLEWIGGVNPNNGDTIFNQKFKDKAALTVDKSSSTAFMELRSLTSEESTVYYCVRRELDFFDYWGQGTSVTVSS
VL: B3 VL with A3V, M37V, E49K, S56A, G83A, T87A, T89A, D97E
B8: HCV 208A-207 (antibody, V domains shown)
VH: QGQLQQPGAEFVKPGASLKLSCRASGYTFTSYWIHWVKQRPGQGLEWIGEIDPSDSYINQNQKFRGKATLTVDKSSSTAYMELSGLTSEDSAVYYCARHYYGVLDSWGQGTTLTVSS
VL: DIVLTQSPATLSVTPGDRVSLSCRASQRIYNYLHWYQQKSHESPRLLTKYASQSISGIPSRFSGSGSGTDFILTINSVETEDFGMYFCQQSNSWPLTFGAGTKLELRR
B9: HCV 208A-638 (antibody, V domains shown)
VH: B8 VH with I51V, Q62E, E82Q, S84G, G85S, T112A
VL: QIVLTQSPTIMSASLGERVTMTCTASSSVSSSYLHWFQQKPGSSPKLWIYSTSNLASGVPPRFSGSGSGTSYSLSISSVEAEDVATYYCLQFHRSPWTFGGGAKLEIKR
B10: HCV 208A-1064 (antibody, V domains shown)
VH: EVQLQQSGPELVKPGASVKISCKTSGYTFTEYAMHWMKQSHGKSLEWIGGINPTNGDTIYNQKFKDKAKLTVDRSSSTAYMELRSLTSDDSALFYCARRELDYFASWGQGTTLTVSS
VL: DIVLTQSPASLIVSLGQTATISCRASQSVSTSRFSYLHWIQQKPGQPPKLLIKYASNLESGVPVRFSGSGSGTDFTLNIHPVEEEDTATYFCQHSWEFPFTFGSGTKLKIKR
B11: HCV 208A-133 (antibody, V domains shown)
VH: B7 VH with A8V, Q9L, K11G, K36E, D64G, A67T, L81F
VL: B3 VL with A3V, E49K, G83A, D97E
B12: HCV 208A-605 (antibody, V domains shown)
VH: EVQLQQSGPELEKPGASVKISCKTSGYTFTEYAIHWVKQSHGMSLEWIGGINPSNGNAIYNQIFKDKATLTVDRSSSTAYMGLRSLTFGDSGVYFCVRRQLDFFDYWGQGASLTVSS
VL: B3 VL with A3V, L4V, M37L, E49K, D97E
B13: HCV 208A-293 (antibody, V domains shown)
VH: B10 VH with T24A, Y27F, T58A, A105P
VL: B10 VL with T18R, L37V, T76I, K109E
B14: HCV 208A-222 (antibody, V domains shown)
VH: B12 VH with K19R, I34M, M43K, S54N, F103Y
VL: B3 VL with A3V, L4V, M37L, E49K, D97E
B15: HCV 208A-126 (antibody, V domains shown)
VH: B7 VH with A8V, Q9L, D64G, A67T, S75N, M79T, T85P, E98G
VL: B3 VL with A3V, E49K, G83A, T89A, D97E

The binders below were run against biotinylated HCV core peptide 151-171 (Peptide 3) (HCV-1) (assay: EIA, captured mAb).

B1 and B2 are the same in Reactivity (OD492): 0.06 OD for the first, 0.06 OD for the second.

Compared with B3, B4 is lower in Reactivity (OD492): 0.06 OD for the first, 0.05 OD for the second.

Compared with B5, B6 is lower in Reactivity (OD492): 0.1 OD for the first, 0.06 OD for the second.

First: B7
Second: B8
The Reactivity (OD492) of the first is higher: 0.19 OD for the first, 0.08 OD for the second.

Going from B9 to B10, the Reactivity (OD492) rises from 0.09 OD to 0.12 OD.

Going from B11 to B12, the Reactivity (OD492) rises from 0.13 OD to 0.16 OD.

First: B13
Second: B14
The Reactivity (OD492) of the first is higher: 0.11 OD for the first, 0.08 OD for the second.

Work on B15 yielded a Reactivity (OD492) of 0.1 OD.

Each binder was assayed against biotinylated HCV core peptide 134-154 (Peptide 1) (HCV-1) (assay: EIA, captured mAb).

First: B1
Second: B2
The Reactivity (OD492) of the first is higher: 2.06 OD for the first, 1.08 OD for the second.

Going from B3 to B4, the Reactivity (OD492) rises from 0.05 OD to 0.06 OD.

Compared with B5, B6 is higher in Reactivity (OD492): 0.05 OD for the first, 0.08 OD for the second.

Compared with B7, B8 is higher in Reactivity (OD492): 0.15 OD for the first, 1.24 OD for the second.

Going from B9 to B10, the Reactivity (OD492) rises from 0.07 OD to 0.1 OD.

Going from B11 to B12, the Reactivity (OD492) rises from 0.1 OD to 0.22 OD.

First: B13
Second: B14
The Reactivity (OD492) of the first is higher: 0.08 OD for the first, 0.06 OD for the second.

B15 showed a Reactivity (OD492) of 0.2 OD.

Each binder was assayed against biotinylated HCV core peptide 141-161 (Peptide 2) (HCV-1) (assay: EIA, captured mAb).

Compared with B1, B2 is lower in Reactivity (OD492): 0.08 OD for the first, 0.07 OD for the second.

Going from B3 to B4, the Reactivity (OD492) falls from 2.41 OD to 1.15 OD.

First: B5
Second: B6
The Reactivity (OD492) of the first is lower: 0.84 OD for the first, 3.04 OD for the second.

First: B7
Second: B8
The Reactivity (OD492) of the first is higher: 3.77 OD for the first, 0.17 OD for the second.

Going from B9 to B10, the Reactivity (OD492) rises from 2.96 OD to 3.5 OD.

Going from B11 to B12, the Reactivity (OD492) rises from 3.68 OD to 3.71 OD.

Going from B13 to B14, the Reactivity (OD492) rises from 2.42 OD to 2.7 OD.

With B15 the Reactivity (OD492) was 2.08 OD.

From patent publication US9371374
